{"source": "patent US20190284246A1", "key": {"[1]": {"target": "ΔN28-CofB (enterotoxigenic Escherichia coli (ETEC))", "assay": "ITC, peptide titrated into ΔN28-CofB"}, "[2]": {"target": "ΔN28-CofB (enterotoxigenic Escherichia coli (ETEC))", "assay": "ITC"}, "[3]": {"target": "ΔN28-CofB (enterotoxigenic Escherichia coli (ETEC))", "assay": "ITC, CofJ titrated into ΔN28-CofB, 25° C."}}}
{"substance": "CofJ^1-24 peptide", "values": [{"measurement": "Kd", "setting": "[1]", "result": 4000, "unit": "nM"}]}
{"substance": "CofJ^1-24-GCN4 inhibitory peptide (designed binder)", "values": [{"measurement": "fold stronger binding affinity than CofJ to ΔN28-CofB", "setting": "[2]", "result": 5, "unit": "fold"}, {"measurement": "Kd", "setting": "[1]", "result": 40, "unit": "nM"}]}
{"substance": "CofJ^4-16 peptide", "values": [{"measurement": "Kd", "setting": "[1]", "result": 4000, "unit": "nM"}]}
{"substance": "CofJ^4-16-GCN4 inhibitory peptide (designed binder)", "values": [{"measurement": "fold stronger binding affinity than CofJ to ΔN28-CofB", "setting": "[2]", "result": 2.5, "unit": "fold"}, {"measurement": "Kd", "setting": "[1]", "result": 80, "unit": "nM"}]}
{"substance": "secretory protein CofJ", "values": [{"measurement": "Kd", "setting": "[3]", "result": 200, "unit": "nM"}]}
